Test results: article PMC5748159
Like-named read-outs stand apart in the source and are kept apart here.

What was measured:
Experiment in all cases: SEC
[1] = biological target: S100A7(C47S)(C96S) homodimer (human) (UniProt P31151)
[2] = biological target: S100A7(C47S)(C96S) homodimer (human) (UniProt P31151); remark: listed apart in the source
[3] = biological target: Human S100A7 (psoriasin), reduced, with Cys47 and Cys96 as free thiols (human) (UniProt P31151)
[4] = biological target: Human S100A7 (psoriasin), oxidized, with Cys47–Cys96 disulfide bond (human) (UniProt P31151)
[5] = biological target: S100A7(C47A)(C96A) homodimer (human) (UniProt P31151)
[6] = biological target: S100A7(C47A)(C96A) homodimer (human) (UniProt P31151); remark: listed apart in the source

S100A7(C47S)(C96S) homodimer (from UniProt P31151 1-101) (natural protein)
stoichiometry N [1]: 2
stoichiometry N [2]: 2

Human S100A7 (psoriasin), reduced, with Cys47 and Cys96 as free thiols (from UniProt P31151 1-101) (natural protein)
stoichiometry N [3]: 2

Human S100A7 (psoriasin), oxidized, with Cys47–Cys96 disulfide bond (from UniProt P31151 1-101) (natural protein)
stoichiometry N [4]: 2

S100A7(C47A)(C96A) homodimer (from UniProt P31151 1-101) (natural protein)
stoichiometry N [5]: 2
stoichiometry N [6]: 2
